For data set [1] the following is noted: Solubility (μM).
Protocol: (§1) After the centrifugation, the absorbance of the supernatant portion at 280 nm was measured in the microtube. From the obtained value, the concentration was calculated to determine solubility.
A short description of data set [2]: Tracing of hydrolysis behavior in aqueous solution by HPLC (hydrolysis half-life). As to the method: […] A given amount of each solution was injected to HPLC at appropriate time intervals to trace the hydrolysis reaction. The relative starting material concentration was determined from an HPLC peak area corresponding to the starting material. The relative concentration of the starting material was plotted against incubation time. […] Also, the terminal half-life t1/2 of the starting material was calculated according to the expression t1/2=ln(2)/k (wherein k represents the slope of the linear plot).

For data set [3] the following is noted: Solubility (μM). This is another data set of the same source.
Protocol: as §1
Data set [4] is described as follows: Solubility measurement in 0.1% aqueous acetic acid (AcOH) solution. The note with it: aqueous acetic acid solution (0.1% AcOH).
Protocol: as §1
Data set [5] is described as follows: Solubility measurement in water (absorbance of supernatant at 280 nm). The note with it: 25° C.
Protocol: as §1
For data set [6], the system named is cytotoxic T lymphocyte (CTL). The note with it: cited from earlier work.
[7] abbreviates: buffer, pH 4, Hydrolysis half-life, Acetate buffer solution (pH 4.0), 25° C.
Where [8] appears, read: buffer, pH 4, Hydrolysis half-life, Acetate buffer solution (pH 4.0), 37° C.
[9] abbreviates: buffer, pH 7.4, Hydrolysis half-life, PBS (pH 7.4), 25° C.
Setting [10] is: buffer, pH 7.4, Hydrolysis half-life, PBS (pH 7.4), 37° C.

For orientation: solubility means the dissolved amount per volume that the medium holds. The half-life is the time in which the quantity being followed falls by half.

Like-named read-outs stand apart in the source and are kept apart here. Bounds are passed on as bounds.

As for `CC(=O)N[C@@H]1[C@@H](O)[C@H](O[C@@H]2O[C@H](CO)[C@@H](O[C@@H]3O[C@H](CO[C@H]4O[C@H](CO)[C@@H](O)[C@H](O)[C@@H]4O[C@@H]4O[C@H](CO)[C@@H](O[C@@H]5O[C@H](CO)[C@H](O)[C@H](O)[C@H]5O)[C@H](O)[C@H]4NC(C)=O)[C@@H](O)[C@H](O[C@H]4O[C@H](CO)[C@@H](O)[C@H](O)[C@@H]4O[C@@H]4O[C@H](CO)[C@@H](O[C@@H]5O[C@H](CO)[C@H](O)[C@H](O)[C@H]5O)[C@H](O)[C@H]4NC(C)=O)[C@@H]3O)[C@H](O)[C@H]2NC(C)=O)[C@@H](CO)O[C@H]1NC(=O)CSCC(NC(=O)c1ccc(COC(=O)[C@H](CC(C)C)NC(=O)[C@H](CC(C)C)NC(=O)[C@H](C)NC(=O)[C@H](CC(C)C)NC(=O)[C@H](CC(C)C)NC(=O)[C@H](CC(C)C)NC(=O)CNC(=O)[C@H](Cc2c[nH]c3ccccc23)NC(=O)[C@@H](N)CCCNC(=N)N)cc1)C(N)=O` (stereo partly drawn) [compound 1], the solubility at 15 min is above 37000 µM in data set [1] and above 41000 µM in data set [3]. The Hydrolysis half-life was above 720 h in data set [2] (buffer, pH 4) and 146 h in data set [2] (buffer, pH 7.4). The half-life was above 720 h in data set [2] (buffer, pH 4, Hydrolysis half-life) and 78 h in data set [2] (buffer, pH 7.4, Hydrolysis half-life).
`CC(=O)N[C@@H]1[C@@H](O)[C@H](O[C@@H]2O[C@H](CO)[C@@H](O[C@@H]3O[C@H](CO[C@H]4O[C@H](CO)[C@@H](O)[C@H](O)[C@@H]4O[C@@H]4O[C@H](CO)[C@@H](O[C@@H]5O[C@H](CO[C@]6(C(=O)O)C[C@H](O)[C@@H](NC(C)=O)[C@H]([C@H](O)[C@H](O)CO)O6)[C@H](O)[C@H](O)[C@H]5O)[C@H](O)[C@H]4NC(C)=O)[C@@H](O)[C@H](O[C@H]4O[C@H](CO)[C@@H](O)[C@H](O)[C@@H]4O[C@@H]4O[C@H](CO)[C@@H](O[C@@H]5O[C@H](CO[C@]6(C(=O)O)C[C@H](O)[C@@H](NC(C)=O)[C@H]([C@H](O)[C@H](O)CO)O6)[C@H](O)[C@H](O)[C@H]5O)[C@H](O)[C@H]4NC(C)=O)[C@@H]3O)[C@H](O)[C@H]2NC(C)=O)[C@@H](CO)O[C@H]1NC(=O)CSC[C@H](NC(=O)c1ccc(COC(=O)[C@H](CC(C)C)NC(=O)[C@H](CC(C)C)NC(=O)[C@H](C)NC(=O)[C@H](CC(C)C)NC(=O)[C@H](CC(C)C)NC(=O)[C@H](CC(C)C)NC(=O)CNC(=O)[C@H](Cc2c[nH]c3ccccc23)NC(=O)[C@@H](N)CCCNC(=N)N)cc1)C(N)=O` [compound 8]: the solubility at 15 min is at least 104 mg/mL in data set [4] (Solubility (mg/mL)), above 34000 µM in data set [4] (Solubility (μM)), at least 121 mg/mL in data set [5] (Solubility (mg/mL)) and above 47000 µM in data set [5] (Solubility (μM)). Moreover, the half-life in data set [2] (setting [7]) is above 720 h; in data set [2] (setting [8]), above 720 h; in data set [2] (setting [9]) it was 121 h; in data set [2] (setting [10]) it was 106 h.
`CC(C)C[C@H](NC(=O)[C@H](CC(C)C)NC(=O)[C@H](C)NC(=O)[C@H](CC(C)C)NC(=O)[C@H](CC(C)C)NC(=O)[C@H](CC(C)C)NC(=O)CNC(=O)[C@H](Cc1c[nH]c2ccccc12)NC(=O)[C@@H](N)CCCNC(=N)N)C(=O)O` [compound 10]: in data set [6], the “Ability to induce cytotoxic T lymphocyte (CTL)” value is listed as “exhibits the ability to induce cytotoxic T lymphocyte (CTL)”.
With `CC(=O)N[C@@H]1[C@@H](O)[C@H](O[C@@H]2O[C@H](CO)[C@@H](O[C@@H]3O[C@H](CO[C@H]4O[C@H](CO)[C@@H](O)[C@H](O)[C@@H]4O[C@@H]4O[C@H](CO)[C@@H](O[C@@H]5O[C@H](CO)[C@H](O)[C@H](O)[C@H]5O)[C@H](O)[C@H]4NC(C)=O)[C@@H](O)[C@H](O[C@H]4O[C@H](CO)[C@@H](O)[C@H](O)[C@@H]4O[C@@H]4O[C@H](CO)[C@@H](O[C@@H]5O[C@H](CO)[C@H](O)[C@H](O)[C@H]5O)[C@H](O)[C@H]4NC(C)=O)[C@@H]3O)[C@H](O)[C@H]2NC(C)=O)[C@@H](CO)O[C@H]1NC(=O)CSCCSC(=O)[C@H](CC(C)C)NC(=O)[C@H](CC(C)C)NC(=O)[C@H](C)NC(=O)[C@H](CC(C)C)NC(=O)[C@H](CC(C)C)NC(=O)[C@H](CC(C)C)NC(=O)CNC(=O)[C@H](Cc1c[nH]c2ccccc12)NC(=O)[C@@H](N)CCCNC(=N)N` [compound 20], the half-life in data set [2] (setting [7]) was above 720 h; in data set [2] (setting [8]) it was 576 h; in data set [2] (buffer, pH 7.4, Hydrolysis half-life, PBS (pH 7.4), 4° C.) it was 230 h; in data set [2] (setting [9]), 120 h; in data set [2] (setting [10]), 32 h. For the same compound, the solubility at 15 min is at least 77.4 mg/mL in data set [5] (Solubility (mg/mL)) and above 28000 µM in data set [5] (Solubility (μM)).
With `CC(=O)N[C@@H]1[C@@H](O)[C@H](O[C@@H]2O[C@H](CO)[C@@H](O[C@@H]3O[C@H](CO[C@H]4O[C@H](CO)[C@@H](O)[C@H](O)[C@@H]4O[C@@H]4O[C@H](CO)[C@@H](O[C@@H]5O[C@H](CO)[C@H](O)[C@H](O)[C@H]5O)[C@H](O)[C@H]4NC(C)=O)[C@@H](O)[C@H](O[C@H]4O[C@H](CO)[C@@H](O)[C@H](O)[C@@H]4O[C@@H]4O[C@H](CO)[C@@H](O[C@@H]5O[C@H](CO)[C@H](O)[C@H](O)[C@H]5O)[C@H](O)[C@H]4NC(C)=O)[C@@H]3O)[C@H](O)[C@H]2NC(C)=O)[C@@H](CO)O[C@H]1NC(=O)C[C@H](NC(=O)Cc1ccc(SC(=O)[C@H](CC(C)C)NC(=O)[C@H](CC(C)C)NC(=O)[C@H](C)NC(=O)[C@H](CC(C)C)NC(=O)[C@H](CC(C)C)NC(=O)[C@H](CC(C)C)NC(=O)CNC(=O)[C@H](Cc2c[nH]c3ccccc23)NC(=O)[C@@H](N)CCCNC(=N)N)cc1)C(=O)NCC(N)=O` [compound 21], the half-life is 66 h in data set [2] (PBS, pH 7.4, Hydrolysis half-life, PBS (pH 7.4), 4° C.); 25 h in data set [2] (PBS, pH 7.4, Hydrolysis half-life, PBS (pH 7.4), 25° C.); 4 h in data set [2] (PBS, pH 7.4, Hydrolysis half-life, PBS (pH 7.4), 37° C.); 456 h in data set [2] (acetate buffer solution, pH 4, Hydrolysis half-life, Acetate buffer solution (pH 4.0), 25° C.); 240 h in data set [2] (acetate buffer solution, pH 4, Hydrolysis half-life, Acetate buffer solution (pH 4.0), 37° C.). Further, in data set [2] (after hydrolysis test in buffer solution), the “Hydrolysis product found by HPLC analysis” value is listed as “production of the unmodified HER2(8-16) peptide (compound 10) was confirmed”. Besides, the solubility at 15 min in data set [5] (water, Solubility (mg/mL)) was at least 76.7 mg/mL; in data set [5] (water, Solubility (μM)), above 26000 µM.

Source of the values: US10202469B2, “Sugar chain-attached linker, compound containing sugar chain-attached linker and physiologically active substance or salt thereof, and method for producing same” (Glytech, Inc., priority 2012, dated 2019).
